The values below come from patent publication US20220025045A1 (INNATE PHARMA, published 2022).

One experiment addresses T1, Mutant D4-1B.
T1 construct: D4 domain point mutant; also called ILT2 mutant 4-1b
Briefly: flow cytometry titration on cells transfected with ILT2 mutant 4-1b. A general note: Flow cytometry measures light scatter and fluorescence of single cells or particles in a stream.

In a further experiment the target is T2, Mutant D4-4.
T2 construct: D4 domain point mutant; also called ILT2 mutant 4-4
Nature of the experiment: flow cytometry titration on cells transfected with ILT2 mutant 4-4.

Experiment [1] addresses T3, recombinant human ILT2 protein (analyte in SPR and Octet) (human, UniProt Q8NHL6 24-458, limits assumed).
T3 construct: also called Human ILT2 recombinant proteins
Nature of the experiment: SPR, mAb captured on Protein-A, monovalent, two state reaction. The procedure: Measurements were performed on a Biacore T200 apparatus (Biacore GE Healthcare) at 25° C. In all Biacore experiments HBS-EP+ (Biacore GE Healthcare) and NaOH 10 mM served as running buffer and regeneration buffer respectively. Sensorgrams were analyzed with Biacore T100 Evaluation software. Protein-A was purchased from (GE Healthcare). Human ILT2 recombinant proteins were cloned, produced and purified at Innate Pharma. Protein-A proteins were immobilized covalently to carboxyl groups in the dextran layer on a Sensor Chip CMS. The chip surface was activated with EDC/NHS (N-ethyl-N′-(3-dimethylaminopropyl) carbodiimidehydrochloride and N-hydroxysuccinimide (Biacore GE Healthcare)). Protein-A was diluted to 10 μg/ml in coupling buffer (10 mM acetate, pH 5.6) and injected until the appropriate immobilization level was reached (i.e. 600 RU). Deactivation of the remaining activated groups was performed using 100 mM ethanolamine pH 8 (Biacore GE Healthcare). […] For blank subtraction, cycles were performed again replacing ILT2 proteins with running buffer. The monovalent affinity analysis was conducted following a regular Capture-Kinetic protocol as recommended by the manufacturer (Biacore GE Healthcare kinetic wizard). […]
(In general: SPR reads the build-up and loss of mass on a sensor chip optically.)

A further experiment addresses T4, ILT2 mutant 4-2 (human, UniProt Q8NHL6 24-650).
T4 construct: Transfected in HEK293T cells
Briefly: flow cytometry titration on cells transfected with ILT2 mutant 4-2.

The target of experiment [2] is T3, recombinant human ILT2 protein (analyte …). Briefly: BLI (Octet RED96), mAb captured on AMC biosensor, 1:1 model. (In general: In BLI a coated tip is dipped into the sample, and binding shifts an interference pattern.)
In experiment [3] the target is T5, human ILT-2 (LILRB1), complete form expressed at the cell surface (human, UniProt Q8NHL6 24-650).
T5 construct: also called CHO-ILT2; CHO ILT2 cell line
Nature of the experiment: flow cytometry, CHO-ILT2 cells.

T3 sequence (Q8NHL6 24-458 limits assumed): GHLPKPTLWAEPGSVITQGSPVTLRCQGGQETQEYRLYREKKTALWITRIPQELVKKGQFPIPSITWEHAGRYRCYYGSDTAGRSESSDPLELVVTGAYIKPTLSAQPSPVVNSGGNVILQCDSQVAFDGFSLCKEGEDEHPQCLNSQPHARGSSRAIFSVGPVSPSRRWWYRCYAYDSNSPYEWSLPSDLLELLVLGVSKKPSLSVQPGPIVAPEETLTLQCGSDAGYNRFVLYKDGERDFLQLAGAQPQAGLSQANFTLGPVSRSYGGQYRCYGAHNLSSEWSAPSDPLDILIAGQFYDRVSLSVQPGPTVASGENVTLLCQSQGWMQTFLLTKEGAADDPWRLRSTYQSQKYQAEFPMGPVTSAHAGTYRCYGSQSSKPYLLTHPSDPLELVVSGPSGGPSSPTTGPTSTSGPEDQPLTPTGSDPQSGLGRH
T4 sequence (Q8NHL6 other isoform, or with tags, fused parts or gaps mutant): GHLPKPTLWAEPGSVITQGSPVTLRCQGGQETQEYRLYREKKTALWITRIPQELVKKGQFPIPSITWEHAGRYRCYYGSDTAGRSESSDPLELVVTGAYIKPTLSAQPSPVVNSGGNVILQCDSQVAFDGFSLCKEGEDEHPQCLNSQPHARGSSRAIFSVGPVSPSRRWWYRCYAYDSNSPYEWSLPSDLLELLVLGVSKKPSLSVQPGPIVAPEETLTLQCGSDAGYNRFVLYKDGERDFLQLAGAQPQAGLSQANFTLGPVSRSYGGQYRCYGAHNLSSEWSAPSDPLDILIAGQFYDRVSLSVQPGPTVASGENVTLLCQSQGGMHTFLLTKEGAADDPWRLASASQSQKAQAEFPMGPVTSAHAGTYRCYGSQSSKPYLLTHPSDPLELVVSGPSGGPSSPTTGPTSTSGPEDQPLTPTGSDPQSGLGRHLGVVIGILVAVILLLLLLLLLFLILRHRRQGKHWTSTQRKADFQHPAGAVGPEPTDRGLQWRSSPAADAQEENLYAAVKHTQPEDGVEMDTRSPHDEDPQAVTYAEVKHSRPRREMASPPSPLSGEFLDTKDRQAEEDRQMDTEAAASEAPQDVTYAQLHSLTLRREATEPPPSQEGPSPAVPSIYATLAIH
T5 sequence (Q8NHL6 24-650): as the sequence (Q8NHL6 other isoform, or with tags, fused parts or gaps mutant) above, with G328W, H330Q, A347R, A349T, S350Y, A355Y counted along it

B1: 26D8 (antibody, human IgG1, V domains shown)
VH: QVQLQQSGAELVKPGASVKLSCKASGYTFTEHTIHWIKQRSGQGLEWIGWFYPGSGSMKYNEKFKDKATLTADKSSSTVYMELTRLTSEDSAVYFCARHTNWDFDYWGQGTTLTVSS
VL: DIVLTQSPASLAVSLGQRATISCKASQSVDYGGDSYMNWYQQKPGQPPKLLIYAASNLESGIPARFSGSGSGTDLTLNIHPVEEDDAAMYYCQQSNEEPWTFGGGTKLEIK
As for B1, the concentration giving a half-maximal response (EC50 (read off the curve)) in the experiment with Mutant D4-1B was approximately 0.2 mg/L.

B2: 18E1 (antibody, human IgG1, V domains shown)
VH: QVQLQQSGAELVKPGASVRLSCKASGYTFTAHTIHWVKQRSGQGLEWIGWLYPGSGSIKYNEKFKDKATLTADKSSSTVYMELSRLTSEDSAVYFCARHTNWDFDYWGQGTTLTVSS
VL: NIVLTQSPASLAVSLGQRATISCKASQSVDYGGASYMNWYQQKPGQPPKLLIYAASNLESGIPARFSGSGSGTDLTLNIHPVEEEDAAMYYCQQSNEEPWTFGGGTKLEIK
In the case of B2, the “EC50 (read off the curve)” value with Mutant D4-1B and with Mutant D4-4 was approximately 0.3 mg/L throughout.

B3: 27H5 (antibody, human IgG1, V domains shown)
VH: QVQLKESGPGLVAPSQSLSITCTVSGFSLTSYGVSWVRQPPGKGLEWLGVIWGDGNTNYHSALISRLSISKDNSKSQVFLKLNSLQTDDTATYYCARTNWDGWFAYWGQGTLVTVSA
VL: DIVMTQSHKFMSTSVGDRVSITCKASQDVGTAVAWYQQKPGQSPKLLIYWASTRHTGVPDRFTGSGSGTDFTLTISNVQSEDLADYFCQQYRSYPLGTFGGGTKLEIK
For the molecule B3, the koff in experiment [1] is 0.1 s⁻¹.

B4: 27C10 (antibody, human IgG1, V domains shown)
VH: EVQLQESGPGLVKPSQSLSLTCSVTGYSITSGYYWNWIRQFPENKLEWMGYIRYDGSNNYNPSLNNRISITRDASKNQFFLKLNSVTTEDTATYYCARGWLLWFYAVDYWGQGTSVTVSS
VL: DVVMTQTPLSLPVSLGDQASISCRSSQSIVHTNGNTYLEWYLQKSGQSPKLLIYKVSNRLSGVPDRFSGSGSGTDFTLKISRVEAEDLGIYYCFQGSHVPWTFGGGTKLEIK
Regarding B4, the results for the “EC50 (read off the curve)” value with Mutant D4-1B, with Mutant D4-4 and in the experiment with ILT2 mutant 4-2 were approximately 0.5 mg/L, approximately 0.5 mg/L and approximately 0.6 mg/L, respectively.

B5: 3H5 (antibody, human IgG1, V domains shown)
VH: QVQLKESGPGLVAPSQSLSITCTVSGFSLTSYGVSWVRQPPGKGLEWLGVIWGDGSTNYHSALISRLSISKDNSKSQVFLKLNSLQTDDTATYYCAKPRWDDYAMDYWGQGTSVTVSS
VL: DIQMTQTTSSLSASLGDRVTISCRASQDISNYLNWYQQKPDGTVKLLIYYTSRLHSGVPSRFSGSGSGTDYSLTISNLEQEDIATYFCQQGNTLWTFGGGTKLEIK
Consider B5, for which the koff in experiment [1] is 0.008 s⁻¹.

B6: GHI/75 (antibody, V domains shown)
VH: EVILVESGGALVRPGGSLKLSCAASGFTFSSNAMSWVRQTPEKRLEWVATISNGGTFTYYPDSVKGRFTISRDNAKNTLYLQMNSLRSEDTAMYYCARHGDGNYGDPLDYWGQGTTLTVSS
VL: DIQMTQSPASQSASLGESVTITCLASQTIGTWLAWYQQKPGKSPQLLIYAATNLADGVPSRFSGSGSGTKFSFKISSLQAEDFVSYYCQQLYSTPFTFGSGTKLEIK
As to B6, in experiment [2], the Kd was found to be 0.0281 µM, the koff is 0.00038 s⁻¹ and the kon was 13000 M⁻¹ s⁻¹. In experiment [3], this molecule came in with an EC50 of 5.39 mg/L.

The term EC50 (read off the curve) denotes the midpoint of the concentration-response curve. High values mean weaker potency, low ones greater potency. A word on the koff: it is the first-order rate constant of dissociation. The term Kd denotes the concentration at which binding is half-saturated. For orientation: kon means the rate constant with which the complex forms. In general, EC50 refers to the midpoint of the concentration-response curve.
